{"source": "patent US8455427B2", "about": "“Methods of modifying insulin signaling using biliverdin reductase” (University of Rochester, priority 2005, dated 2013)", "molecules": {"B1": {"name": "HO-1: heme oxygenase isozyme, used as a control for kinase activity (protein, UniProt P09601 1-288, looked up)", "Heme oxygenase 1": "MERPQPDSMPQDLSEALKEATKEVHTQAENAEFMRNFQKGQVTRDGFKLVMASLYHIYVALEEEIERNKESPVFAPVYFPEELHRKAALEQDLAFWYGPRWQEVIPYTPAMQRYVKRLHEVGRTEPELLVAHAYTRYLGDLSGGQVLKKIAQKALDLPSSGEGLAFFTFPNIASATKFKQLYRSRMNSLEMTPAVRQRVIEEAKTAFLLNIQLFEELQELLTHDTKDQSPSRAPGLRQRASNKVQDSAPVETPRGKPPLNTRSQAPLLRWVLTLSFLVATVAVGLYAM"}, "B2": {"name": "HO-2: heme oxygenase isozyme, used as a control for kinase activity (protein, UniProt P30519 2-316, looked up)", "Heme oxygenase 2": "SAEVETSEGVDESEKKNSGALEKENQMRMADLSELLKEGTKEAHDRAENTQFVKDFLKGNIKKELFKLATTALYFTYSALEEEMERNKDHPAFAPLYFPMELHRKEALTKDMEYFFGENWEEQVQCPKAAQKYVERIHYIGQNEPELLVAHAYTRYMGDLSGGQVLKKVAQRALKLPSTGEGTQFYLFENVDNAQQFKQLYRARMNALDLNMKTKERIVEEANKAFEYNMQIFNELDQAGSTLARETLEDGFPVHDGKGDMRKCPFYAAEQDKGALEGSSCPFRTAMAVLRKPSLQFILAAGVALAAGLLAWYYM"}, "B3": {"name": "Y^228: human BVR point mutant, NRYLS to NRFLS (protein, UniProt P53004 3-296, looked up, variant Y228F)", "Biliverdin reductase A": "AEPERKFGVVVVGVGRAGSVRMRDLRNPHPSSAFLNLIGFVSRRELGSIDGVQQISLEDALSSQEVEVAYICSESSSHEDYIRQFLNAGKHVLVEYPMTLSLAAAQELWELAEQKGKVLHEEHVELLMEEFAFLKKEVVGKDLLKGSLLFTAGPLEEERFGFPAFSGISRLTWLVSLFGELSLVSATLEERKEDQYMKMTVCLETEKKSPLSWIEEKGPGLKRNRFLSFHFKSGSLENVPNVGVNKNIFLKDQNIFVQKLLGQFSEKELAAEKKRILHCLGLAEEIQKYCCSRK"}, "B4": {"name": "G^17: human BVR point mutant in ATP binding domain, GVGRA to GVARA (protein, UniProt P53004 3-296, looked up, variant G17A)", "Biliverdin reductase A": "B3 Biliverdin reductase A with G15A, F226Y"}, "B5": {"name": "Y^198 plus Y^228: human BVR double mutant, DQFMK and NRFLS (protein, UniProt P53004 3-296, looked up, variant Y198F Y228F)", "Biliverdin reductase A": "B3 Biliverdin reductase A with Y196F"}, "B6": {"name": "Y^291: human BVR point mutant, QKYCC to QKFCC (protein, UniProt P53004 3-296, looked up, variant Y291F)", "Biliverdin reductase A": "B3 Biliverdin reductase A with F226Y, Y289F"}, "B7": {"name": "T^202: human BVR point mutant, KMTVC to KMAVC (protein, UniProt P53004 3-296, looked up, variant T202A)", "Biliverdin reductase A": "B3 Biliverdin reductase A with T200A, F226Y"}, "B8": {"name": "Y^198 plus Y^291: human BVR double mutant, DQFMK and QKFCC (protein, UniProt P53004 3-296, looked up, variant Y198F Y291F)", "Biliverdin reductase A": "B3 Biliverdin reductase A with Y196F, F226Y, Y289F"}}, "key": {"[1]": {"target": "T1, insulin receptor tyrosine kinase (IRK) (Homo sapiens, UniProt P06213)", "T1 construct": "the 48 kDa cytoplasmic domain of the β-subunit of IRK; purchased Biomol International (Plymouth, Pa.)", "T1 sequence (P06213 980-1382 limits assumed)": "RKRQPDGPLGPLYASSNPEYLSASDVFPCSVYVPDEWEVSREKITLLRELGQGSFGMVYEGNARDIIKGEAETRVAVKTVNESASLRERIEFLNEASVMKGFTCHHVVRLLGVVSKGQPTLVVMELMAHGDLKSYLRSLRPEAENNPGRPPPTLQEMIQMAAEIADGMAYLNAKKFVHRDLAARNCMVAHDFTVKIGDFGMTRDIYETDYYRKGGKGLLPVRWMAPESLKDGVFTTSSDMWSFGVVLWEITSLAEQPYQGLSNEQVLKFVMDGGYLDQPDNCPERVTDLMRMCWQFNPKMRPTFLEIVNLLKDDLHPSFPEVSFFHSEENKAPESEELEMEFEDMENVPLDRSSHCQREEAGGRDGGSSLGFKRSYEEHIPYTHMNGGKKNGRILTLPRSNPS", "assay": "BVR phosphorylation by the insulin receptor tyrosine kinase (IRK), in vitro [32P]-ATP assay", "type": "biochemical", "details": "for decrease of BVR phosphorylation by IRK caused by point mutation / BVR phosphorylation by IRK (tyrosine mutants, in words): mutant vs wtBVR, IRK 2 h at 30° C.", "procedure": "BVR phosphoiylation by the insulin receptor tyrosine kinase (IRK): Phosphorylation of BVR by IRK was examined using GST-HBVR fusion protein and the 48 kDa cytoplasmic domain of the β-subunit of IRK. BVR (5 μg) was incubated in 50 μl of IRK kinase buffer containing 50 mM HEPES (pH 8.0), 20 mM MgCl2, 1 mM DTT in the presence of 0.05 μg IRK and 10 μM ATP labeled with 10 μCi [γ-^32P]-ATP. The reaction was started with the addition of labeled ATP and incubated for 2-4 h. Reactions were terminated by addition of Laemmli sample buffer and boiled for 3 min. Samples were subjected to 8% SDS-PAGE and transferred to PVDF membranes for autoradiography."}, "human BVR [2]": {"target": "T2, human BVR (Homo sapiens, UniProt P53004, A154S/E160D/G155D)", "T2 construct": "made in house", "T2 sequence (P53004 1-296 A154S/G155D/E160D)": "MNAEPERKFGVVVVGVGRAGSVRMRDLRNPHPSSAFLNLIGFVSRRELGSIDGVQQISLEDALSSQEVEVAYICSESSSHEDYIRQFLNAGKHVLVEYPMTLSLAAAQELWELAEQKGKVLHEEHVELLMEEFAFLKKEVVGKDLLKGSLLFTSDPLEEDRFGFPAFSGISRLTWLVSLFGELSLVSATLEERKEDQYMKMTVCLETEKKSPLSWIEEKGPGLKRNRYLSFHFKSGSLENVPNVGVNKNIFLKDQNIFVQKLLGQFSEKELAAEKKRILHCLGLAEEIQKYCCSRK", "assay": "BVR autophosphorylation", "type": "biochemical", "details": "pH 8.4; 20 mM Zn acetate, also with Mn+2", "procedure": "(§1) BVR autophosphorylation and kinase activity: To detect autophosphorylation of BVR, GST-hBVR of wild type (wt) and mutant variants were incubated in 50 mM HEPES buffer (pH 8.4) in the presence of 30 mM MnCl2 and 1 mM DTT for 2 h at 30° C. The reaction was started with the addition of 10 μM ATP labeled with 10 μCi [γ-^32P]-ATP and was stopped with the addition of Laemmli sample buffer. Samples were boiled for 3 min and applied to a 8% SDS-PAGE gels, transferred to a PVDF membrane, and then visualized by autoradiography. To measure kinase activity, GST-BVR (5 μg) was incubated in 50 μl kinase buffer containing 50 mM HEPES buffer (pH 8.4), 20 mM MgCl2, 30 mM MnCl2, 1 mM DTT and 10 μM ATP labeled with 10 μCi [γ-^32P]-ATP in the presence of 5 μg substrates: IRS-1 or Raytide or poly glu/tyr (4:1) for 2 h at 30° C. The reaction was started with the addition of ATP and terminated by adding 120 μl 10% H3PO4. 100 μl aliquots were directly transferred to P81 Whatman filters which were subsequently washed extensively in 0.75% phosphoric acid at room temperature. Finally, the filters were submerged in acetone for 5 min, dried, and retained counts were measured using a Beckman LS 6500 liquid scintillation counter (Beckman Coulter, Fullerton, Calif.)."}, "human BVR [3]": {"target": "T2, human BVR", "assay": "BVR kinase activity on substrates (IRS-1, IRS-1 peptides, Raytide, poly glu/tyr)", "type": "biochemical", "details": "peptide as substrate of BVR, [γ-32P]-ATP", "procedure": "as §1"}, "BVR in 293A cells [4]": {"test_system": "BVR in 293A cells", "assay": "BVR reductase activity in insulin-treated 293A cells", "type": "cell-based, human", "details": "insulin 50 nM", "procedure": "(§2) Cell culture and transfection and infection of 293A: 293A cells were grown in 10 cm-plates with Dulbecco's Modified Eagle Medium (DMEM) (Invitrogen, Carlsbad, Calif.) containing 10% fetal bovine serum and 1% penicillin-G/streptomycin for 24 h or until a confluency of 70% was reached. Cells were subsequently transfected with 4 μg of pcDNA3 mutant BVR Y^198 using Transfectin Lipid Reagent (Bio-Rad, Hercules, Calif.), according to the manufacturer's procedure and incubated for 48 h at 37° C. In addition, non-transfected cells were infected with pSuper-Retro-siBVR for 24 h in the presence of 4 μg/ml polybrene. Cells were starved in serum-free DMEM 16 h prior to insulin treatment (50 nM).\nMeasurement of BVR Reductase Activity: 293A cells treated with insulin were lysed in buffer containing a protease inhibitor cocktail and phosphatase inhibitors (10 mM NaF, […]). BVR activity was measured at pH 6.7 using NADH as the cofactor as described previously (Huang et al., J. Biol. Chem. 264:7844-9 (1989), which is hereby incorporated by reference in its entirety). The rate of conversion of biliverdin to bilirubin was determined as the increase in absorbance at 450 nm at 25° C. Specific activity is expressed as μmol of bilirubin/min/mg of protein."}, "BVR in 293A cells [5]": {"test_system": "BVR in 293A cells", "assay": "BVR tyrosine phosphorylation in insulin-treated 293A cells (immunoprecipitation and immunoblotting)", "type": "cell-based, human", "details": "within 8 min after insulin treatment", "procedure": "as §2\nImmunoprecipitation and immunoblotting: 293A Cells were plated in 10 cm plates and transfected with appropriate plasmids. Prior to collection, cells were washed twice with cold PBS and lysed in 300 μl cold modified RIPA buffer containing 50 mM Tris (pH7.4), 75 mM NaCl, 2 mM EDTA, 2 mM EGTA, 10 mM NaF, 1% Nonidet P-40, 0.5% sodium deoxycholate, 0.5% sodium vanadate, 1 mM PMSF, 10 μg/ml aprotinin, 1 mM benzamidine, 10 μg/ml leupeptine, and 10 μg/ml pepstatin. Cells sonicated (2×3 sec each) and centrifuged at 10,000×g for 15 min. Protein concentration was determined by Bradford assay (Bio-Rad, Hercules, Calif.). […]"}, "human BVR [6]": {"test_system": "human BVR", "assay": "BVR kinase activity on substrates (IRS-1, IRS-1 peptides, Raytide, poly glu/tyr)", "type": "biochemical", "details": "protein tested as kinase for IRS; Mn+2 and Mg+2 present", "procedure": "as §1"}, "human BVR [7]": {"test_system": "human BVR", "assay": "BVR autophosphorylation", "type": "biochemical", "details": "pH 8.4, 30 mM MnCl2, 2 h, 30° C.", "procedure": "as §1"}}, "note": "Positions count from the first letter of the chain named.", "data": [{"molecule": "O=C(O)CN(CCN(CC(=O)O)CC(=O)O)CC(=O)O", "note": "[EDTA, reference compound]", "values": [{"measurement": "effect on phosphorylation of BVR by IRK", "setting": "[1]; 50 mM EDTA (pH 8.0), 30° C., 2 h, anti-phosphotyrosine blot", "result": "abolished phosphorylation of BVR by IRK"}]}, {"molecule": "O=c1c(-c2ccc(O)cc2)coc2cc(O)cc(O)c12", "note": "[Genestein, reference compound]", "values": [{"measurement": "effect on BVR phosphorylation mediated by IRK", "setting": "[1]; genestein 200 μM, HEPES pH 8.0, 20 mM MgCl2", "result": "significantly inhibited BVR phosphorylation mediated by IRK"}]}, {"molecule": "CC(=O)[O-].CC(=O)[O-].[Zn+2]", "note": "[Zn^+2, Zn acetate, reference compound]", "values": [{"measurement": "effect of metal ion on BVR autophosphorylation", "setting": "human BVR [2]", "result": "inhibitory to BVR autophosphorylation"}]}, {"molecule": "Arg-Thr-Glu-Ser^307-Ile-Thr-Ala-Thr-Ser^312-Pro-Ala-Ser^315-Met-Val-Gly-Gly-Lys-Pro (RTESITATSPASMVGGKP; peptide fragment of Homo sapiens Insulin Receptor Substrate (Peptide 2)) [IRS-1 peptide (#2), reference compound]", "values": [{"measurement": "phosphorylation of IRS-1 peptide by BVR", "setting": "human BVR [3]", "result": "1198±230", "unit": "cpm"}]}, {"molecule": "Lys-Lys-His-Ala-Asp-Asp-Gly-Ala-Met-Pro-Met-Ser^312-Pro-Gly-Val-Ala (KKHADDGAMPMSPGVA; mutant peptide fragment of Homo sapiens Insulin Receptor Substrate (Peptide 1)) [mutant IRS-1 peptide (#1), reference compound]", "values": [{"measurement": "phosphorylation of IRS-1 peptide by BVR", "setting": "human BVR [3]", "result": "1049±78", "unit": "cpm"}]}, {"molecule": "insulin: Human insulin purchased from Sigma-Aldrich", "values": [{"measurement": "increase in BVR reductase activity", "setting": "BVR in 293A cells [4]; 1 h after treatment", "result": 2, "unit": "fold"}, {"measurement": "BVR reductase activity, later time", "setting": "BVR in 293A cells [4]; 6 h after treatment", "result": "gradually returned to basal level"}, {"measurement": "BVR tyrosine phosphorylation", "setting": "BVR in 293A cells [5]", "result": "dramatic increase in phosphorylation"}]}, {"molecule": "B1", "values": [{"measurement": "IRS phosphorylation", "setting": "human BVR [6]", "result": "did not significantly effect IRS phosphorylation"}]}, {"molecule": "B2", "values": [{"measurement": "IRS phosphorylation", "setting": "human BVR [6]", "result": "did not significantly effect IRS phosphorylation"}]}, {"molecule": "B3", "values": [{"measurement": "autophosphorylation of BVR mutants", "setting": "human BVR [7]", "result": "did not result in significant changes in autophosphorylation of BVR"}, {"measurement": "decrease of BVR phosphorylation by IRK caused by point mutation", "setting": "[1]", "result": 40, "unit": "%"}]}, {"molecule": "B4", "values": [{"measurement": "IRS phosphorylation", "setting": "human BVR [6]", "result": "for the most part, prevented IRS phosphorylation by BVR"}]}, {"molecule": "B5", "values": [{"measurement": "BVR phosphorylation by IRK (tyrosine mutants, in words)", "setting": "[1]", "result": "little or no phosphorylation was detected"}]}, {"molecule": "B6", "values": [{"measurement": "autophosphorylation of BVR mutants", "setting": "human BVR [7]", "result": "did not result in significant changes in autophosphorylation of BVR"}, {"measurement": "decrease of BVR phosphorylation by IRK caused by point mutation", "setting": "[1]", "result": 49, "unit": "%"}]}, {"molecule": "B7", "values": [{"measurement": "autophosphorylation of BVR mutants", "setting": "human BVR [7]", "result": "found to be a target of autophosphorylation"}]}, {"molecule": "B8", "values": [{"measurement": "BVR phosphorylation by IRK (tyrosine mutants, in words)", "setting": "[1]", "result": "little or no phosphorylation was detected"}]}]}
